# ± gives the standard deviation of the averaged measurements.
# System: Saccharomyces cerevisiae
# Experiment: protein stability index of tFT-peptide fusion (C-terminal peptide) (PSI (0-1 scale)); higher = more stable (slower turnover)
# Settings: genetic background: wild type; temperature: 30 C
# Method: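 MPS profiling in S. cerevisiae of the yeast C-terminome library: the last 12 aa of each annotated ORF are fused to the C-terminus of a sfGFP-mCherry timer, after a GGGS linker. Cells are FACS-sorted into 8 mCherry/sfGFP bins and deep-sequenced. PSI runs from 0 (unstable) to 1 (stable); wild type and das1Δ backgrounds, two technical replicates each.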
row,Sequence,protein stability index
1,SKNTREEKPTEL [MMM1 C-terminal 12 aa],0.688 ± 0.018
2,SKPALGTCLYEQ [GAL3 C-terminal 12 aa],0.665 ± 0.03
3,SLEKLEMSKYGL [YKL033W-A C-terminal 12 aa],0.6694 ± 0.004
4,SLRSFFVKQKVL [ERP6 C-terminal 12 aa],0.185 ± 0.025
5,SLSARKINMRKV [KRE9 C-terminal 12 aa],0.644 ± 0.014
6,SMALRTVSILEN [YGL152C C-terminal 12 aa],0.649 ± 0.025
7,SMKYPHTAALVR [YLR111W C-terminal 12 aa],0.653 ± 0.072
8,SNGFKEWRKSLK [RAI1 C-terminal 12 aa],0.67 ± 0.02
9,SNSSSSQKAAKE [HST2 C-terminal 12 aa],0.651 ± 0.024
10,SNWARIFFCHHD [YDL186W C-terminal 12 aa],0.713 ± 0.028
11,SPSPKPQHRRKR [ELO2 C-terminal 12 aa],0.704 ± 0.029
12,SQLLLFGFGAMV [MDM32 C-terminal 12 aa],0.705 ± 0.031
13,SQSCPFFPLMDD [YDR246W-A C-terminal 12 aa],0.7463 ± 0.0073
14,SQSKIKAKIRPE [YJL193W C-terminal 12 aa],0.666 ± 0.011
15,SRFLKRKSHHDK [SEC1 C-terminal 12 aa],0.723 ± 0.049
16,SRIELELKNIGL [ECM29 C-terminal 12 aa],0.762 ± 0.0041
17,SRILQYKCIFTY [ARP8 C-terminal 12 aa],0.2402 ± 0.0014
18,SRTPPARRQRHR [CWC22 C-terminal 12 aa],0.671 ± 0.012
19,SSDEEENEKELP [PWP2 C-terminal 12 aa],0.705 ± 0.039
20,SSKAIQGNFDDL [SPB4 C-terminal 12 aa],0.714 ± 0.047
21,SSLDEVLAKDKD [MIN8 C-terminal 12 aa],0.6795 ± 0.0061

row,Sequence,protein stability index
1,SSSSFISYPPQR [MAD3 C-terminal 12 aa],0.6977 ± 0.0019
2,STAVRSIDALKN [HSP31 C-terminal 12 aa],0.687 ± 0.0074
3,STERAKELLESN [MRF1 C-terminal 12 aa],0.69 ± 0.033
4,STGSETKIADCR [HSM3 C-terminal 12 aa],0.695 ± 0.021
5,STSGESFTETQF [ICL2 C-terminal 12 aa],0.73 ± 0.054
6,STTIRAINALYS [HSP32 C-terminal 12 aa],0.65 ± 0.037
7,SVFGEAEEVTNW [MET2 C-terminal 12 aa],0.702 ± 0.031
8,SVTSKFKKYPYK [BET2 C-terminal 12 aa],0.634 ± 0.026
9,SWISKEKRVSEE [HXT2 C-terminal 12 aa],0.809 ± 0.04
10,SWLYNFDELLWQ [ALG8 C-terminal 12 aa],0.727 ± 0.021
11,SYNDPALADFMP [NRE1 C-terminal 12 aa],0.744 ± 0.039
12,TAEPNRNVNQMP [YDL218W C-terminal 12 aa],0.662 ± 0.013
13,TASEIQRTKSSI [YGR035C C-terminal 12 aa],0.683 ± 0.022
14,TDEFDMLIGIDH [COG6 C-terminal 12 aa],0.707 ± 0.025
15,TDLENETFIYPL [YCT1 C-terminal 12 aa],0.793 ± 0.072
16,TDNTVYQKFLKY [ILV1 C-terminal 12 aa],0.692 ± 0.041
17,TDVKKFIHELCE [TRP3 C-terminal 12 aa],0.679 ± 0.034
18,TEKKINTRPPFR [DAM1 C-terminal 12 aa],0.656 ± 0.011
19,TEMATDASARMV [TPO4 C-terminal 12 aa],0.682 ± 0.0089
20,TEPVKQVLGNKE [NMA1 C-terminal 12 aa],0.675 ± 0.014
21,TFFDIRQKFVVV [BOP2 C-terminal 12 aa],0.44744 ± 0.00038

row,Sequence,protein stability index
1,TFLYYYFPLPTN [YPL080C C-terminal 12 aa],0.69 ± 0.028
2,TFPLVMMKTTYY [YFR009W-A C-terminal 12 aa],0.697 ± 0.044
3,TGTSNSVLVIIT [YPL136W C-terminal 12 aa],0.684 ± 0.033
4,THKKPGFENYSI [IRC13 C-terminal 12 aa],0.704 ± 0.017
5,TIAIGKIVKIAE [SUP35 C-terminal 12 aa],0.685 ± 0.013
6,TIIYPLFIFFSL [YMR105W-A C-terminal 12 aa],0.225 ± 0.0044
7,TISRLPPRSWTN [YCL042W C-terminal 12 aa],0.739 ± 0.015
8,TIYDGEAVAKYI [PRE5 C-terminal 12 aa],0.7 ± 0.046
9,TKAIEDAKKEMK [NUP2 C-terminal 12 aa],0.737 ± 0.11
10,TKISIRKAPKFF [MRPL31 C-terminal 12 aa],0.656 ± 0.024
11,TKNLVPGFSDLM [SEC61 C-terminal 12 aa],0.676 ± 0.011
12,TKNTCIRRLSNQ [YLR031W C-terminal 12 aa],0.698 ± 0.036
13,TLISGKEDGPTI [SRY1 C-terminal 12 aa],0.701 ± 0.044
14,TLKKRFGLVPGQ [NOP10 C-terminal 12 aa],0.686 ± 0.029
15,TLKKVTQNFYFD [LMO1 C-terminal 12 aa],0.6724 ± 0.0018
16,TLVADQEDDVIF [VMA8 C-terminal 12 aa],0.715 ± 0.025
17,TLVGTPGYRITL [RCE1 C-terminal 12 aa],0.695 ± 0.02
18,TNDRLQSILHDL [MEF2 C-terminal 12 aa],0.702 ± 0.013
19,TNERQLNPWICN [YML090W C-terminal 12 aa],0.688 ± 0.031
20,TPDVLAAGPQFE [PCK1 C-terminal 12 aa],0.6787 ± 0.0029
21,TQKKVDQRWKKH [SEN54 C-terminal 12 aa],0.737 ± 0.082

row,Sequence,protein stability index
1,TQLVQKALERFK [RIC1 C-terminal 12 aa],0.676 ± 0.084
2,TSDGSASDLEII [MCM10 C-terminal 12 aa],0.692 ± 0.024
3,TSLEKQINSIKK [NSP1 C-terminal 12 aa],0.70199 ± 0.0005
4,TSNGGVEETMKM [ARX1 C-terminal 12 aa],0.676 ± 0.025
5,TSNSPSPDLMEK [SMA2 C-terminal 12 aa],0.705 ± 0.042
6,TSPPEGMEPKHW [SGT1 C-terminal 12 aa],0.687 ± 0.0088
7,TVIFSCVPGRRV [RAX1 C-terminal 12 aa],0.709 ± 0.0011
8,TVNYNDKTISGN [VPS30 C-terminal 12 aa],0.692 ± 0.055
9,TYNSYTEPEELR [FMP27 C-terminal 12 aa],0.716 ± 0.05
10,VAHRENLAFPPR [PRO1 C-terminal 12 aa],0.707 ± 0.012
11,VARRITDHTCLM [YLR364C-A C-terminal 12 aa],0.696 ± 0.031
12,VCKFASWLFSKI [AMD2 C-terminal 12 aa],0.6687 ± 0.005
13,VDHLTDPDIYIP [BUB2 C-terminal 12 aa],0.7129 ± 0.0042
14,VERNHPVITNIS [YCR087W C-terminal 12 aa],0.733 ± 0.062
15,VESPTLFCVCTQ [YPR170C C-terminal 12 aa],0.66 ± 0.028
16,VFWKLKSRKLRI [MCH1 C-terminal 12 aa],0.418 ± 0.033
17,VGENNYYAESII [COS111 C-terminal 12 aa],0.7022 ± 0.005
18,VGRKPRLPKGKL [YCL002C C-terminal 12 aa],0.842 ± 0.024
19,VHPNWSPFEVFK [GCY1 C-terminal 12 aa],0.738 ± 0.037

# From the supplement of paper PMC10724198
